According to PMC5934295 (Neuron, 2018):

B1: mouse CALHM3-GFP (natural protein, UniProt J3QMI4 1-347, looked up)
chain: MDRFRMLFQHLQSSSESVMNGICLLLAAVTVKIYSSLDFNCPCLERYNALYGLGLLLTPPLALFLCGLLVNRQSVLMVEEWRRPAGHRRKDLGIIRYMCSSVLQRALAAPLVWILLALLDGKCFVCAFSNSVDPEKFLDFANMTPRQVQLFLAKVPCKEDELVKNSPARKAVSRYLRCLSQAIGWSITLLVIVVAFLARCLRPCFDQTVFLQRRYWSNYMDLEQKLFDETCCEHARDFAHRCVLHFFANMQSELRALGLRRDPAGGIPESQESSEPPELREDRDSGNGKAHLRAISSREQVDQLLSTWYSSKPPLDLAASPRRWGPGLNHRAPIAAPGTKLCHQLNV
B2: CALHM3-mCherry (natural protein, mouse, UniProt J3QMI4 1-347, looked up)
chain: B1 chain
B3: mouse CALHM1-FLAG (natural protein, UniProt D3Z291 1-348, looked up)
chain: MDKFRMIFQFLQSNQESFMNGICGIMALASAQMYSAFDFNCPCLPGYNVVYSLGILLTPPLVLFLLGLVMNNNISMLAEEWKRPAGRRAKDPAVLRYMFCSMAQRALIAPVVWVAVTLLDGKCFLCAFCTAVPVATLGNGSLVPGLPAPELARLLARVPCPEIYDGNWLLAREVAVRYLRCISQALGWSFVLLTTLLAFVVRSVRPCFTQVAFLKSKYWSHYIDIERKLFDETCTEHAKAFAKVCIQQFFEAMNHDLELGHTHGVLATATATATATEAVQSPSDRTEEEREKLRGITDQGTMNRLLTSWHKCKPPLRLGQEAPLMSNGWAGGEPRPPRKEVATYFSKV

Legend:
mouse CALHM1-FLAG = target: B3; assay: native gel or EMSA
[1] = target: the molecule itself; assay: single-molecule photobleaching
native gel or EMSA = target: the molecule itself; assay: native gel or EMSA

**Q.** With B1 as the binder, how does the “stoichiometry N” value (mouse CALHM1-FLAG) read?
**A.** The value was ≥ 1 CALHM3 subunit per channel.

**Q.** How did the “stoichiometry N” value [1] turn out when B2 was run?
**A.** Its value is 6.

**Q.** How did the “stoichiometry N” value (native gel or EMSA) turn out when B3 was run?
**A.** The value was ~6.
